Literature values in article PMC5729051.

Biological target: amyloid-beta oligomer (Homo sapiens) (UniProt P05067)

In the case of “Cellular Prion Protein (PrPC) (from UniProt P04156)”, the Kd is given as 0.4 nM.
